Columns and labels:
[1] = target: T1, human TROP-2 on the surface of human cell lines (the AR52A301.5 antigen) (human, UniProt P09758 27-323); test: flow cytometry, 20 micrograms/mL antibody, MCF-7 breast cancer cells
T1 construct: whole, on cells; The cell lines are not transfected; also called IDAC 141205-03 antigen; TROP-2 antigenic moiety
T1 sequence (looked up): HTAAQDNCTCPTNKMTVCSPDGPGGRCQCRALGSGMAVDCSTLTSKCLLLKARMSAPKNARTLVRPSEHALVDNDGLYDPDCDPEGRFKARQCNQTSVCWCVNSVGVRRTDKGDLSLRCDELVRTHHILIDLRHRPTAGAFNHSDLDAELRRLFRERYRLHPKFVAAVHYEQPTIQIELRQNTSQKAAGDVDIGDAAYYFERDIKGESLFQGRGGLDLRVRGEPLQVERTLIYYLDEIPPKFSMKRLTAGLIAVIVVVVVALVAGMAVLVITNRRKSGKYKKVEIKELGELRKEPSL
Method: (§1) All cell lines, except for the majority of ovarian cancer cell lines, were obtained from the American Type Tissue Collection (ATCC, Manassas, Va.).
(§2) Cells were prepared for FACS by initially washing the cell monolayer with DPBS (without Ca⁺⁺ and Mg⁺⁺). Cell dissociation buffer (INVITROGEN, Burlington, ON) was then used to dislodge the cells from their cell culture plates at 37° C. After centrifugation and collection, the cells were resuspended in DPBS containing MgCl₂, CaCl₂ and 2 percent fetal bovine serum at 4° C. […] Flow cytometric acquisition of the cells was assessed by running samples on a FACSarray™ using the FACSarray™ System Software (BD Biosciences, Oakville, ON). The forward (FSC) and side scatter (SSC) of the cells were set by adjusting the voltage and amplitude gains on the FSC and SSC detectors.

[2] = target: T1, human TROP-2 on the surface of human …; test: flow cytometry, 20 micrograms/mL antibody, OVCAR-3 ovarian cancer cells (printed twice in the paragraph, once as OVAR-3)
Method: as §1, §2

[3] = target: T1, human TROP-2 on the surface of human …; test: flow cytometry, 20 micrograms/mL antibody, HT-29 colon cancer cells
Method: as §2

[4] = target: T1, human TROP-2 on the surface of human …; test: flow cytometry, 20 micrograms/mL antibody, MDA-MB-468 breast cancer cells
Method: as §2

[5] = target: T1, human TROP-2 on the surface of human …; test: flow cytometry, 20 micrograms/mL antibody, DU-145 prostate cancer cells
Method: as §2

[6] = target: T1, human TROP-2 on the surface of human …; test: flow cytometry, 20 micrograms/mL antibody, PC-3 prostate cancer cells
Method: as §1, §2

[7] = target: T1, human TROP-2 on the surface of human …; test: flow cytometry, 20 micrograms/mL antibody, FaDu head and neck cancer cells
Method: as §1, §2

[8] = target: T1, human TROP-2 on the surface of human …; test: cell-based or functional assay
[9] = target: T1, human TROP-2 on the surface of human …; test: flow cytometry, 20 micrograms/mL antibody, NCI-H520 lung cancer cells (weaker binding)
Method: as §1, §2

[10] = target: T1, human TROP-2 on the surface of human …; test: flow cytometry, 20 micrograms/mL antibody, T.Tn esophageal cancer cells
Method: as §2

[11] = target: T1, human TROP-2 on the surface of human …; test: flow cytometry, 20 micrograms/mL antibody, Colo-205 colon cancer cells
Method: as §2

[12] = target: T1, human TROP-2 on the surface of human …; test: flow cytometry, 20 micrograms/mL antibody, PL45 pancreatic cancer cells
Method: as §1, §2

[13] = target: T1, human TROP-2 on the surface of human …; test: flow cytometry, 20 micrograms/mL antibody, BxPC-3 pancreatic cancer cells
Method: as §2

[14] = target: T1, human TROP-2 on the surface of human …; test: flow cytometry, 20 micrograms/mL antibody, OCC-1 ovarian cancer cells
Method: as §1, §2

[15] = target: T1, human TROP-2 on the surface of human …; test: flow cytometry, 20 micrograms/mL antibody, C-13 ovarian cancer cells
Method: as §2

[16] = target: T1, human TROP-2 on the surface of human …; test: flow cytometry, 20 micrograms/mL antibody, OV2008 ovarian cancer cells
Method: as §1, §2

[17] = target: T1, human TROP-2 on the surface of human …; test: flow cytometry, 20 micrograms/mL antibody, OVCA-429 ovarian cancer cells
Method: as §1, §2

[18] = target: T1, human TROP-2 on the surface of human …; test: flow cytometry, 20 micrograms/mL antibody, Hey ovarian cancer cells
Method: as §2

[19] = target: T1, human TROP-2 on the surface of human …; test: flow cytometry, 20 micrograms/mL antibody, Hs888.Lu non-cancer lung cells (weaker binding)
Method: as §2

[20] = target: T1, human TROP-2 on the surface of human …; test: flow cytometry, 20 micrograms/mL antibody, DLD-1 colon cancer cells
Method: as §2

mean fluorescence intensity fold increase above isotype control [1]: 16 fold
mean fluorescence intensity fold increase above isotype control [2]: 22.1 fold
mean fluorescence intensity fold increase above isotype control [3]: 6.7 fold
mean fluorescence intensity fold increase above isotype control [4]: 22.7 fold
mean fluorescence intensity fold increase above isotype control [5]: 3.9 fold
mean fluorescence intensity fold increase above isotype control [6]: 5 fold
mean fluorescence intensity fold increase above isotype control [7]: 59.8 fold
mean fluorescence intensity fold increase above isotype control [9]: 2.1 fold
mean fluorescence intensity fold increase above isotype control [10]: 18.6 fold
mean fluorescence intensity fold increase above isotype control [11]: 38.6 fold
mean fluorescence intensity fold increase above isotype control [12]: 12.9 fold
mean fluorescence intensity fold increase above isotype control [13]: 29.4 fold
mean fluorescence intensity fold increase above isotype control [14]: 17.8 fold
mean fluorescence intensity fold increase above isotype control [15]: 38.7 fold
mean fluorescence intensity fold increase above isotype control [16]: 32.7 fold
mean fluorescence intensity fold increase above isotype control [17]: 3.4 fold
mean fluorescence intensity fold increase above isotype control [18]: 5.9 fold
mean fluorescence intensity fold increase above isotype control [19]: 2.6 fold
mean fluorescence intensity fold increase above isotype control [20]: 82.8 fold
B1: AR52A301.5 monoclonal antibody (hybridoma IDAC 141205-03) (antibody, mouse IgG1, V domains shown)
VH: EVQLQQSGPELVKPGASVKISCKASGYTFTDYNMHWVKQSHGKSLEWIGYIYPYNGGTGYNQRFKNKATLTVDISSSTAYMELRSLTSEDSAVYYCAREEDYYGFDYWGQGTTLTVSS
VL: DVVMTQTPLSLPVSLGQDASISCRSSQSLVHSYGNTYLHWYLQKPGQSPKLLIYKVSNRFSGVPDRFSGSGSGTDFTLKISRVEAEDMGVYFCSQSTHVYTFGGGTKLEIK
notes: Murine IgG1, kappa from the hybridoma; also called IDAC 141205-03 antibody
cytotoxicity on OVCAR-3 cells relative to the positive control cycloheximide [8]: 53 percent

— patent publication US20070202043A1 (ARIUS RESEARCH, published 2007)
